Test results published in US20200123233A1 (published 2020).
Residue numbers refer to the chain shown, from its start.

Key:
[1] = biological target: T1, FTM-NN protein (membrane anchorless form of the Long fusion protein, 70 kDa) (human respiratory syncytial virus, …, UniProt P12568 26-524); test: SPR (Biacore), FTM-NN immobilised
T1 construct: domain: membrane anchorless form of the fusion protein

[2] = biological target: hRSV (inactivated hRSV strain Long, Hytest #8RSV79), F protein on virus particles (human respiratory syncytial virus, …, UniProt P12568 26-574); test: binding ELISA on coated hRSV (Hytest), anti-VHH detection
F protein of RSV A-2 = F protein of RSV A-2 (human respiratory syncytial virus, …, UniProt P03420 26-574); test: cell-based or functional assay
[3] = biological target: F protein of RSV Long (RSV LONG M-2) (human respiratory syncytial virus, …, UniProt P12568 26-574); test: cell-based or functional assay
[4] = biological target: T1, FTM-NN protein (membrane anchorless …); test: competition ELISA on coated FTM-NN; competitor biotinylated Synagis Fab
F protein of RSV B-1 = F protein of RSV B-1 (human respiratory syncytial virus, …, UniProt P13843 26-574); test: cell-based or functional assay
[5] = biological target: FTM-NN protein (membrane anchorless form of the Long fusion protein, 70 kDa) (human respiratory syncytial virus, …, UniProt P12568 26-524); test: binding ELISA, periplasmic extract on immobilised antigen
[6] = biological target: authentic influenza antigen of A/PR/8/34 (ATCC VR-1469), serotype H1N1 (influenza A virus A/PR/8/34 (H1N1), UniProt P03452 18-565); test: ELISA, coated authentic AIV antigen, E. coli culture supernatant, anti-c-myc-HRP
[7] = biological target: authentic influenza antigen of A/PR/8/34 (ATCC VR-1469), H1N1 (influenza A virus A/PR/8/34 (H1N1), UniProt P03452 18-565); test: ELISA on coated authentic influenza antigen

B1: LG191D3 (VHH)
VHH: EVQLVESGGGLVQAGGSLRLSCEASGRTYSRYGMGWFRQAPGKEREFVAAVSRLSGPRTVYADSVKGRFTISRDNAENTVYLQMNSLKPEDTAVYTCAAELTNRNSGAYYYAWAYDYWGQGTQVTVSS
Work on B1 yielded a Kd [1] of 1.9 nM, a koff [1] of 0.0028 s⁻¹ and a kon [1] of 1.5e+06 M⁻¹ s⁻¹. The EC50 [2] was 0.15 nM, the “RSV neutralization IC50 (nM) (n = 2), A-2” value (F protein of RSV A-2) was 227 nM and the “RSV neutralization IC50 (nM) (n = 2), Long” value [3] was 253 nM. For the same binder, the EC50 [4] was 5.9 nM.

B2: 1E4 (VHH)
VHH: B1 VHH with Y29F, R31S, S106P, A112T
B2 was tested, and the “RSV neutralization IC50 (nM) (n = 2), A-2” value (F protein of RSV A-2) was 298 nM and the “RSV neutralization IC50 (nM) (n = 2), Long” value [3] was 380 nM.

B3: RSVPMP7B2 (VHH)
VHH: EVQLVESGGGLVQAGDSLRLSCAASGRTFSSYAMGWFRQAPGKEREFVAAISWSDGSTYYADSVKGRFTISRDNAKNTVYLQMNSLKPEDTAVYYCAADLTSTNPGSYIYIWAYDYWGQGTQVTVSS
B3 showed a Kd [1] of 1.1 nM, a koff [1] of 0.00065 s⁻¹ and a kon [1] of 570000 M⁻¹ s⁻¹. For the same binder, the EC50 [2] was 0.09 nM, the “RSV neutralization IC50 (nM) (n = 2), A-2” value (F protein of RSV A-2) was 177 nM and the “RSV neutralization IC50 (nM) (n = 2), Long” value [3] was 91 nM. For the same binder, the “RSV neutralization IC50 (nM) (n = 2), B1” value (F protein of RSV B-1) was 2690 nM and the EC50 [4] was 1.9 nM.

B4: RSVNC23 (VHH)
VHH: EVQLVESGGGLVQPGGSLRLSCAASGRTFSSIAMGWFRQAPGKEREFVAAISWSRGRTFYADSVKGRFIISRDDAANTAYLQMNSLKPEDTAVYYCAVDTASWNSGSFIYDWAYDHWGQGTQVTVSS
With B4 the Kd [1] was 0.92 nM, the koff [1] was 0.00074 s⁻¹ and the kon [1] was 800000 M⁻¹ s⁻¹. The EC50 [2] was 0.1 nM, the “RSV neutralization IC50 (nM) (n = 2), A-2” value (F protein of RSV A-2) was 109 nM and the “RSV neutralization IC50 (nM) (n = 2), Long” value [3] was 144 nM. The EC50 [4] was 2.3 nM.

B5: RSVPMP15H8 (VHH)
VHH: EVQLVESGGGLVQAGGSLRLSCAASGRSFSNYVLGWFRQAPGKEREFVAAISFRGDSAIGAPSVEGRFTISRDNAKNTGYLQMNSLVPDDTAVYYCGAGTPLNPGAYIYDWSYDYWGRGTQVTVSS
In the case of B5, the Kd [1] is reported as 16 nM, the koff [1] is reported as 0.021 s⁻¹ and the kon [1] is reported as 1.2e+06 M⁻¹ s⁻¹. The EC50 [2] was 0.83 nM, the “RSV neutralization IC50 (nM) (n = 2), A-2” value (F protein of RSV A-2) was 218 nM and the “RSV neutralization IC50 (nM) (n = 2), Long” value [3] was 200 nM. For the same binder, the “RSV neutralization IC50 (nM) (n = 2), B1” value (F protein of RSV B-1) was 2340 nM and the EC50 [4] was 39 nM.

B6: RSVNC41 (VHH)
VHH: EVQLVESGGGLVQAGGSLSISCAASGGSLSNYVLGWFRQAPGKEREFVAAINWRGDITIGPPNVEGRFTISRDNAKNTGYLQMNSLAPDDTAVYYCGAGTPLNPGAYIYDWSYDYWGRGTQVTVSS
For B6, the Kd [1] was 8.1 nM, the koff [1] was 0.0067 s⁻¹ and the kon [1] was 820000 M⁻¹ s⁻¹. The EC50 [2] was 0.41 nM and the EC50 [4] was 32 nM.

B7: RSVPMP15B3 (VHH)
VHH: EVQLVESGGGLVQPGGSLRLSCAASGLTLDYYALGWFRQAPGKEREGVSCISSSDHSTTYTDSVKGRFTISWDNAKNTLYLQMNSLKPGDTAVYYCAADPALGCYSGSYYPRYDYWGQGTQVTVSS
Work on B7 yielded a Kd [1] of 0.67 nM, a koff [1] of 0.00027 s⁻¹ and a kon [1] of 410000 M⁻¹ s⁻¹. The EC50 [2] was 0.058 nM and the “RSV neutralization IC50 (nM) (n = 2), B1” value (F protein of RSV B-1) was 1270 nM.

B8: LG191E4 (VHH)
VHH: EVQLVESGGGLVQAGGSLRLSCAASGPTFSADTMGWFRQAPGKEREFVATIPWSGGIAYYSDSVKGRFTMSRDNAKNTVDLQMNSLKPEDTALYYCAGSSRIYIYSDSLSERSYDYWGQGTQVTVSS
Binder B8 has a Kd [1] of 0.27 nM, a koff [1] of 0.00015 s⁻¹ and a kon [1] of 570000 M⁻¹ s⁻¹. The EC50 [2] was 0.083 nM and the “RSV neutralization IC50 (nM) (n = 2), B1” value (F protein of RSV B-1) was 4330 nM.

B9: PMP7B2 (VHH)
VHH: B3 VHH
B9 was tested, and the “Binding RSV-A, Fold blanc” value [5] was 4.7 fold over blank.

B10: PMP1A6 (VHH)
VHH: EVQLVESGGGLVQAGGSLRLSCAASGRTFSSYAMGWFRQAPGKEREFVAAIWWSGGSTYYADSVKGRFTMSRDNAKNTVYLEMNNLKPEDTAVYYCAADTDSSNSGSYLYTWAYDYWGQGTQVTVSS
In the case of B10, the “Binding RSV-A, Fold blanc” value [5] is reported as 4.2 fold over blank.

B11: PMP19C4 (VHH)
VHH: B5 VHH
In the case of B11, the “Binding RSV-A, Fold blanc” value [5] is reported as 2.5 fold over blank.

B12: PMP1G8 (VHH)
VHH: EVQLVESGGGSVQAGGSLRLSCAASGGSFNRFGMGWFRRAPGKERDFVAAINLSGDTTYYVDSVQGRFTISRDNANNIMYLQMNLLKPEDTADYYCAADPDPITAWKQSGAGMDYWGKGTQVTVSS
With B12 the “Binding RSV-A, Fold blanc” value [5] was 3.7 fold over blank.

B13: PMP1E5 (VHH)
VHH: EVQLVESGGGLVQAGGSLRLSCEASGRTFSPIAMGWFRQAPGKEREFVAVVTRWSGARTVYADSVKGRFTISRDNAENTVYLQMNSLKPEDTAVYTCAADSTNRNSGAIYYTWAYDYWGQGTQVTVSS
B13 was tested, and the “Binding RSV-A, Fold blanc” value [5] was 3.4 fold over blank.

B14: PMP1G3 (VHH)
VHH: B1 VHH
With B14 the “Binding RSV-A, Fold blanc” value [5] was 3.4 fold over blank.

B15: PMP20B2 (VHH)
VHH: B13 VHH with P31S, I32Y, A33D, V50A, T59G, Y81H, I109V
For B15, the “Binding RSV-A, Fold blanc” value [5] was 3 fold over blank.

B16: PMP20C1 (VHH)
VHH: EVQLVESGGGLVQAGGSLRLSCAASGRTFSSFAMGWFRQAPGKEREFVAAISWSGGSTYYADSVKGRFTISGDNAKNTMYLQMNSLKPEDTAVYYCAADSEILNSGAYYYPWAYVYWGQGTQVTVSS
With B16 the “Binding RSV-A, Fold blanc” value [5] was 2.7 fold over blank.

B17: IV2 (VHH)
VHH: QVQLQESGGGLVQTGGSLRLSCAASGRTFGGYAMAWFRQAPRKGREFVASVTWNGGATDYAGSVKDRFTVSRDTANNTMYLQMNSLKPEDTAVYICGAASGYRSTDRLSDPGWTNYWGQGTQVTVSS
With B17 the “Extinction at 450 nm in ELISA” value [6] was 0.048 extinction at 450 nm.

B18: IV7 (VHH)
VHH: QVQLQQSGGGLVQTGGSLRLSCAASGRTFGGYAMAWFRQAPGKGREFVAAVTWSAGTTNYAGSVKDRFTVSRDNANNTMYLQMNSLKPEDTAVYICGAASGYRSTDRLSEPAWINYWGQGTQVTVSS
In the case of B18, the “Extinction at 450 nm in ELISA” value [6] is reported as 0.048 extinction at 450 nm.

B19: IV10 (VHH)
VHH: B18 VHH with Q6E, T14A, A24T, T28P, S100T, E110D, A112N, I114V
B19 was tested, and the “Extinction at 450 nm in ELISA” value [6] was 0.047 extinction at 450 nm.

B20: IV131 (VHH)
VHH: QVQLQQSGGGLVQAGGSLRLSCAASGSGFSFNPMGWYRQAPGKQRELVASITSGGTTNYVDSVKGRFTISRGNAKNTVYLQMNSLKPEDTAVYYCAAEGPRRRGSTWYTDNYWGQGTQVTVSS
notes: yeast-produced
B20: no binding (tested: 10 µg/ml) [7].

B21: IV133 (VHH)
VHH: QVQLQQSGGGLVQPGGSLRLSCAASSSGFSFNPMGWYRQAPGKQRELVATMTSGGTTNYADSVKGRFTISRDNAKTTVYLQMNSLKPEDTAVYYCNARGPRRATTGWITDDYWGQGTQVTVSS
notes: yeast-produced
B21: no binding (tested: 10 µg/ml) [7].

B22: IV156 (VHH)
VHH: B21 VHH with S26R, M51I, R71T, Y79F, A97G, A103G, T105A, I108F
notes: yeast-produced
B22: no binding (tested: 10 µg/ml) [7].

B23: IV157 (VHH)
VHH: B21 VHH with S26R, G28D, F29I, M51I, T52S, S53N, R71Q, A97G, R102Y, I108Y
notes: yeast-produced
B23: no binding (tested: 10 µg/ml) [7].

B24: IV144 (VHH)
VHH: QVQLQQSGGGLVQAGGSLRLSCAASGNIISFNPMGWHRQAPGKQRELVASITSGGSISYVDSVKGRFTISRDSAKNTIYLQMNSLKPEDTAVYFCAGEGPRRRGSTWYTDTYWGQGTQVTVSS
notes: yeast-produced
B24: no binding (tested: 10 µg/ml) [7].

B25: IV25 (VHH)
VHH: QVQLQQSGGGLVQSGGSLSLSCAASGITLNNRVVGWFRQAPGKEREFVGRIMWSVGDTFYARSVKGRFTISRDNAKNTMYLQMNALKPEDTAVYYCAAARDPDLYTGQYEYWGQGTQVTVSS
notes: yeast-produced
B25: no binding (tested: 10 µg/ml) [7].
